In patent publication US20260043004A1 (IMMPACT BIO, published 2026):

Biological target: T1, anti-CD19/CD20 CAR having the amino acid sequence of SEQ ID NO: 2 (construct CC314)
T1 construct: Chimeric antigen receptor on the surface of transduced T cells: Leu16 scFv (VL-VH), (G4S)4, FMC63 scFv (VH-VL), IgG4 spacer, CD28 TM, 4-1BB, CD3 zeta; also called CD19/20 CAR; CD 19/20 CAR
Assay: flow cytometry staining of T cells (donor 1917) transduced with CD19/20 CAR lentiviral vector

T1 sequence (chain, as listed by the source): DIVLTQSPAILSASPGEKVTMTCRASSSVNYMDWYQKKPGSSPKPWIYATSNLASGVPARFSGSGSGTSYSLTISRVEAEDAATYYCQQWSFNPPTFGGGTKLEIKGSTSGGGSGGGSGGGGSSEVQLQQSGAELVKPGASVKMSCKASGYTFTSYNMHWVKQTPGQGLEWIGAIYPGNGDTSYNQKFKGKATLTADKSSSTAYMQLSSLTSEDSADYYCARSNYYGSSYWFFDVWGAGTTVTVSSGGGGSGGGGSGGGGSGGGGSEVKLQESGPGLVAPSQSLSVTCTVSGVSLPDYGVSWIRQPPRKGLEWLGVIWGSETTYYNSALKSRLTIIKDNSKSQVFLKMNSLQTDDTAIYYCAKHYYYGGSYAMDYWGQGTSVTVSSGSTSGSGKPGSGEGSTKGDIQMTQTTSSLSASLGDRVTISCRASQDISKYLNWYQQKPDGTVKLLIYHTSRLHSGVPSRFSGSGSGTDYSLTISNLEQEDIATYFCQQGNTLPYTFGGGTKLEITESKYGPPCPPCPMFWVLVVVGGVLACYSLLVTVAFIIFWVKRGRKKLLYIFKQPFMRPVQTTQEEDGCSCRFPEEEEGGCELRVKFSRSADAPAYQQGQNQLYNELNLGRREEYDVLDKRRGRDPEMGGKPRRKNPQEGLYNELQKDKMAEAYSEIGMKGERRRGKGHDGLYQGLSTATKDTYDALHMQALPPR

- % Positive Cells: 68.1%
B1: CD20 Protein-Biotin (Acros) (other, UniProt P11836 1-297, looked up)
chain: MTTPRNSVNGTFPAEPMKGPIAMQSGPKPLFRRMSSLVGPTQSFFMRESKTLGAVQIMNGLFHIALGGLLMIPAGIYAPICVTVWYPLWGGIMYIISGSLLAATEKNSRKCLVKGKMIMNSLSLFAAISGMILSIMDILNIKISHFLKMESLNFIRAHTPYINIYNCEPANPSEKNSPSTQYCYSIQSLFLGILSVMLIFAFFQELVIAGIVENEWKRTCSRPKSNIVLLSAEEKKEQTIEIKEEVVGLTETSSQPKNEEDIEIIPIQEEEEEETETNFPEPPQDQESSPIENDSSP
modifications: biotin (site not stated)
notes: Bought detection reagent
